Measurements: patent publication US20230151091A1 (NEW YORK UNIVERSITY, published 2023)

T1: mFz: Fz domain and C-terminal flanking sequence of mouse MuSK (D307 to T494) with C-terminal Avi- and … (mouse, UniProt Q61006 307-494, limits assumed, biotinylated in vitro using the BirA enzyme)
T1 construct: also called mouse Fz; not shown: Avi- and His6-tags
T1 sequence (looked up): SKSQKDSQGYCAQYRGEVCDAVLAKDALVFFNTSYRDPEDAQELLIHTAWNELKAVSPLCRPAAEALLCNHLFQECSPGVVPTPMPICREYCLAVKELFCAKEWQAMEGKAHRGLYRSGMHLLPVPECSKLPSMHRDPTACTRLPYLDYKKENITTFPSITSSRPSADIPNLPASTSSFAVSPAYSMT

T2: mECD: full-length extracellular region of mouse MuSK (E22 to T494) with C-terminal Avi- and His6-tags (mouse, UniProt Q61006 22-494, biotinylated in vitro using the BirA enzyme)
T2 construct: range 22-494; also called mouse ECD; not shown: Avi- and His6-tags
T2 sequence (looked up): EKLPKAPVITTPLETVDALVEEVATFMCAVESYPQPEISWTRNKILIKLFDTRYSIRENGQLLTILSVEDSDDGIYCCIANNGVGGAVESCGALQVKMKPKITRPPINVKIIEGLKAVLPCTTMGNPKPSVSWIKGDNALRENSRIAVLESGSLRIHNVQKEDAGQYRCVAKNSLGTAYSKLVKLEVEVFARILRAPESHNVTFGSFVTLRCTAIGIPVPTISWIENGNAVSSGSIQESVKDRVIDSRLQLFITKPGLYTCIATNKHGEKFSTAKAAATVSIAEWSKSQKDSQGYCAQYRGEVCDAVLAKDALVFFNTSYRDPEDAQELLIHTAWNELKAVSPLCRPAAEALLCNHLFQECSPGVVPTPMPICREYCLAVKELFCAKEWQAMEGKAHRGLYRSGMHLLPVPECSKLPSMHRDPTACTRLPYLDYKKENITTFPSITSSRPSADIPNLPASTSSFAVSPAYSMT

T3: hFz: Fz domain and C-terminal flanking sequence of human MuSK (K314-T495) with C-terminal Avi- and His6-tags (human, UniProt O15146 314-495, biotinylated in vitro using the BirA enzyme)
T3 construct: also called human Fz; not shown: Avi- and His6-tags
T3 sequence: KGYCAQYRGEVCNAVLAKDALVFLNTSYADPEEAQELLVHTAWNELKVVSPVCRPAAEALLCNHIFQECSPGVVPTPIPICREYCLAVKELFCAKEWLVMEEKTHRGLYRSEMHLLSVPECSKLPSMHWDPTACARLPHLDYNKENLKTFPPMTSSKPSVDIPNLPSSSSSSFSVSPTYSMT

T4: hECD: full-length extracellular region of human MuSK (E22 to T495) with C-terminal Avi- and His6-tags (human, UniProt O15146 22-495, biotinylated in vitro using the BirA enzyme)
T4 construct: also called human ECD; not shown: Avi- and His6-tags
T4 sequence: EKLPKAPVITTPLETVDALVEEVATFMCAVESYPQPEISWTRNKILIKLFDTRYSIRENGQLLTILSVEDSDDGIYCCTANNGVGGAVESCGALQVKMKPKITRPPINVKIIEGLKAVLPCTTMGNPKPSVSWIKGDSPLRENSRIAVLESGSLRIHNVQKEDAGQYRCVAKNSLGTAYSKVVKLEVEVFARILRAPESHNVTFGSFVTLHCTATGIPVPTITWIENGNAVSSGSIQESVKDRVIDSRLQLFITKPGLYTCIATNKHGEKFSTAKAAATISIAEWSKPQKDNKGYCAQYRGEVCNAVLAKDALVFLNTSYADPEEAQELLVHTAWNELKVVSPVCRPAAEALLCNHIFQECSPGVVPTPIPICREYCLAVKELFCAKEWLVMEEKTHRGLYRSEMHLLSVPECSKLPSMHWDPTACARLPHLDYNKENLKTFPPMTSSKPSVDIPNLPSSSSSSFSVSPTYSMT

T5: mouse MuSK (mouse, UniProt Q61006 22-494, limits assumed)
T5 construct: Coated on ELISA plates or on the Biacore chip; also called full length mouse MuSK; mouse MuSK (in house produced in HEK293 cells)
T5 sequence (looked up): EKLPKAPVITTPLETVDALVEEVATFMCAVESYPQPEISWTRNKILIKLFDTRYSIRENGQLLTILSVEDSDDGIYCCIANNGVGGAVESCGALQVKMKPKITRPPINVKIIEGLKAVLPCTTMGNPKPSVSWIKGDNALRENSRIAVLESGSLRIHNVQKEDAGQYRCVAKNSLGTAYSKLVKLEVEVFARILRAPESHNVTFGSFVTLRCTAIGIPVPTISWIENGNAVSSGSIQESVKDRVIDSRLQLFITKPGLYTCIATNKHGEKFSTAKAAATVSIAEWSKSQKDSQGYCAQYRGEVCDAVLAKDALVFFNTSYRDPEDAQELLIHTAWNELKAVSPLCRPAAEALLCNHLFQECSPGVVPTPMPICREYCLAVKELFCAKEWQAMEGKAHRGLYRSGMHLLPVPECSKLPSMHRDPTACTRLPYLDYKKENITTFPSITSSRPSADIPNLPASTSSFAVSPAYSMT

T6: human MuSK (human, UniProt O15146 24-495)
T6 construct: Recombinant protein coated on ELISA plates (R&D Systems cat. 10189-MK) or on the Biacore chip; also called human muscle-specific tyrosine protein kinase; full length human MuSK
T6 sequence: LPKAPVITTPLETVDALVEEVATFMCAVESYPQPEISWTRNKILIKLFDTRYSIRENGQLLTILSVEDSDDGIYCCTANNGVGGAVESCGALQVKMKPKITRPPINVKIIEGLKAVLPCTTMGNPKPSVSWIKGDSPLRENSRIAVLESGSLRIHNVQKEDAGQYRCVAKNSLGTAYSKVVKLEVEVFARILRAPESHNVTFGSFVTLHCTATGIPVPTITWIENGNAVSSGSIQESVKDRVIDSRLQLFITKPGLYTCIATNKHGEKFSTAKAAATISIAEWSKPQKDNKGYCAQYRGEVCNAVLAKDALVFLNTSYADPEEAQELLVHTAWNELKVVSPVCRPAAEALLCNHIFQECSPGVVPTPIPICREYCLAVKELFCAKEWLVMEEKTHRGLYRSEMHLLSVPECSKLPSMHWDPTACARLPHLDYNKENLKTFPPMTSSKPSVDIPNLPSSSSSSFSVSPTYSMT


Assays:
[1] = target: T1, mFz: Fz domain and C-terminal flanking …; test: bead-binding titration, Fab format: antigen immobilized on streptavidin beads, MFI by flow cytometry, curve is the 1:1 fit
[2] = target: T2, mECD: full-length extracellular region …; test: as above
[3] = target: T3, hFz: Fz domain and C-terminal flanking …; test: as above
[4] = target: T4, hECD: full-length extracellular region …; test: as above
mouse MuSK = target: T5, mouse MuSK; test: Biacore T200, MuSK on chip (200RU), 22.2 nM Fab, dissociation pH 7.4
How it was run: (§1)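 Surface plasmon resonance was run with both human and mouse MuSK immobilized on the sensor chip. Fab association was always performed at pH 7.4 before the dissociation phase. Kinetic parameters were calculated from the binding curves.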

human MuSK = target: T6, human MuSK; test: as above
How it was run: as §1

| EC50 (read off the curve) [1] | EC50 (read off the curve) [2] | EC50 (read off the curve) [3] | EC50 (read off the curve) [4] | koff (mouse MuSK) | koff (human MuSK) | Binder |
| --- | --- | --- | --- | --- | --- | --- |
| ~0.5 nM | ~0.6 nM | ~0.5 nM | ~0.9 nM | 0.00053 s⁻¹ | 0.00057 s⁻¹ | X2 Fab (Fab, V domains shown, Fab format) VH: EVQLVESGGGLVQPGGSLRLSCAASGFTVSSSSIHWVRQAPGKGLEWVASISSSYGSTSYADSVKGRFTISADTSKNTAYLQMNSLRAEDTAVYYCARSEGDRYVSGYMGMDYWGQGTLVTVSS VL: DIQMTQSPSSLSASVGDRVTITCRASQSVSSAVAWYQQKPGKAPKLLIYSASSLYSGVPSRFSGSRSGTDFTLTISSLQPEDFATYYCQQSGVWLITFGQGTKVEIK |
| ~0.3 nM | ~0.4 nM | ~0.1 nM | ~0.2 nM | 0.00558 s⁻¹ | 0.00063 s⁻¹ | X3 Fab (Fab, V domains shown, Fab format) VH: EVQLVESGGGLVQPGGSLRLSCAASGFTISSSSIHWVRQAPGKGLEWVASISSSSGYTYYADSVKGRFTISADTSKNTAYLQMNSLRAEDTAVYYCARSWYEMWMSGYFGFDYWGQGTLVTVSS VL: DIQMTQSPSSLSASVGDRVTITCRASQSVSSAVAWYQQKPGKAPKLLIYSASSLYSGVPSRFSGSRSGTDFTLTISSLQPEDFATYYCQQSSSSLITFGQGTKVEIK |
